Source: paper PMC4650713, “Crystal structure of Bax bound to the BH3 peptide of Bim identifies important contacts for interaction” (Cell Death & Disease, 2015)

Legend:
BaxΔC21 [1] = target: BaxΔC21 (UniProt Q07812); assay: SPR; competition in solution: BaxΔC21 at 25 nM incubated with increasing concentrations of BH3 peptide in 10 mM HEPES, 150 mM NaCl, 3.4 mM EDTA, 0.005% Tween-20, pH 7.4 with 0.5% octylglucoside, injected onto a CM5 chip with immobilised BimBH3; Bim4E channel subtracted; IC50
BaxΔC21 [2] = target: BaxΔC21 (UniProt Q07812)

BaxΔC21, sequence (Q07812 1-171 C62S/C126S): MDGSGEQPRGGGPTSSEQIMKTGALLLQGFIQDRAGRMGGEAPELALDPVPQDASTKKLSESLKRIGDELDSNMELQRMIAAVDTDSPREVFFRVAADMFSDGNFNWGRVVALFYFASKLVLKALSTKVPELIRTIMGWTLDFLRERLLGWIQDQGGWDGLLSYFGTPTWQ

Substance: BimBH3 P144A/E145A (peptide)
- fold loss of affinity against BimBH3 (BaxΔC21 [1]): 3 fold

Substance: BimBH3 E145K (peptide)
- IC50 (BaxΔC21 [1]): 2400 nM
- fold weaker binding than BimBH3 (BaxΔC21 [1]): 40 fold
- core/latch dimer formation of BaxΔC21 triggered by the peptide with CHAPS (gel filtration) (BaxΔC21 [2]): > 50%

Substance: BimBH3 peptide
- fold tighter binding than BidBH3 (BaxΔC21 [1]): 5 fold
